The results in this text go back to US20100303812A1 (SMART TARGETING, published 2010).

In one assay the target is T1, pure recombinant Dll4 (human, UniProt Q9NR61 27-524).
T1 construct: also called recombinant DLL4 ligand; immobilized Dll4
Nature of the assay: SPR, Biacore A100; immobilized recombinant Dll4, antibody at 20, 10, 5, 2.5 and 1.2 µg/ml.

For assay [1], the target named is T2, mouse DLL4 (on transfected CHO cells) (mouse, UniProt Q9JI71 27-686).
T2 construct: also called murine DLL4; murine Dll4
T2 sequence (Q9JI71 other isoform, or with tags, fused parts or gaps limits assumed): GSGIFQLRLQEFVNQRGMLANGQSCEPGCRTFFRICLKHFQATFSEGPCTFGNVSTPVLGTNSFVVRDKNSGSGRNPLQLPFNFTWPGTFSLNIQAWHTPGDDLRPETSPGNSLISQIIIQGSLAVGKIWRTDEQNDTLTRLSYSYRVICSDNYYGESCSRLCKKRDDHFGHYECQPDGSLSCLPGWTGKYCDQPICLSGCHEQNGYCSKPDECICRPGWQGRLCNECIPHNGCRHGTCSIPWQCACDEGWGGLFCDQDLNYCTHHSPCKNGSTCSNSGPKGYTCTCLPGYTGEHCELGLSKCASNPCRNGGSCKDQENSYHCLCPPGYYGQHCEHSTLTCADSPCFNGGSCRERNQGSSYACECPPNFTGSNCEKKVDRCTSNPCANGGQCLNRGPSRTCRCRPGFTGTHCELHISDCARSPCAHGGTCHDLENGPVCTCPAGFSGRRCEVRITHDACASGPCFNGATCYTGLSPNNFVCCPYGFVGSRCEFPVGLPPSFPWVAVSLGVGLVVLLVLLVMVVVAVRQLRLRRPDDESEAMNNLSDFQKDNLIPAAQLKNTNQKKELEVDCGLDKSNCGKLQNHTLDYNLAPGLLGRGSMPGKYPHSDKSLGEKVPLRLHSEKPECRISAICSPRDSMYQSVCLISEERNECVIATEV
Nature of the assay: flow cytometry on transfected CHO cells (STL4 as one of 'all three'). (In flow cytometry, cells or beads pass a laser one at a time.)

Assay [2] has as its target T3, human Jagged1 (on transfected CHO cells) (human, UniProt P78504 34-1218).
T3 construct: whole, on cells
Briefly: flow cytometry on transfected CHO cells (STL4 as one of the three).

For assay [3], the target named is T4, human DLL1 (on transfected CHO cells) (human, UniProt O00548 18-723).
T4 construct: whole, on cells; also called delta-like-1
T4 sequence (looked up): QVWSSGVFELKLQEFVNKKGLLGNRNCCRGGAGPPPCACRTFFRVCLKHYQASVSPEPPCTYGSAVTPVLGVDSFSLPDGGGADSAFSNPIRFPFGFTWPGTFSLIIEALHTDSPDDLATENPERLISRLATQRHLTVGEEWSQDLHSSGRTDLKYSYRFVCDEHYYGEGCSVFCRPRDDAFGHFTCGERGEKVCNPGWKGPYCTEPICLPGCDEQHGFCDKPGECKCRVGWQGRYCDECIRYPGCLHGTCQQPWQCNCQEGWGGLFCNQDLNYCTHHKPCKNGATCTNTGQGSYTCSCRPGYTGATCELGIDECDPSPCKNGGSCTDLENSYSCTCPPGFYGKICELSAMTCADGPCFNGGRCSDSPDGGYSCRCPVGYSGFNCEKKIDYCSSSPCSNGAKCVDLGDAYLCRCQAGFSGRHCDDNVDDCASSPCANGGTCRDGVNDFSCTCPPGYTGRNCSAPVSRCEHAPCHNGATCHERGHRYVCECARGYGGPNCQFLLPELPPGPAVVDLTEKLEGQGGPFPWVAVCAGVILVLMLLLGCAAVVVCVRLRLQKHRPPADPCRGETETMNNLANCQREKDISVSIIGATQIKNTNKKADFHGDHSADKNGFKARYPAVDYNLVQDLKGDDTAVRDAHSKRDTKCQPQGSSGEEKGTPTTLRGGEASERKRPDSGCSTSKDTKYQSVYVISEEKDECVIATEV
Described as above.

Assay [4] addresses T5, human Jagged2 (on transfected CHO cells) (human, UniProt Q9Y219 24-1238).
T5 construct: whole, on cells
The assay is described as above.

T1 sequence (Q9NR61 27-524 limits assumed): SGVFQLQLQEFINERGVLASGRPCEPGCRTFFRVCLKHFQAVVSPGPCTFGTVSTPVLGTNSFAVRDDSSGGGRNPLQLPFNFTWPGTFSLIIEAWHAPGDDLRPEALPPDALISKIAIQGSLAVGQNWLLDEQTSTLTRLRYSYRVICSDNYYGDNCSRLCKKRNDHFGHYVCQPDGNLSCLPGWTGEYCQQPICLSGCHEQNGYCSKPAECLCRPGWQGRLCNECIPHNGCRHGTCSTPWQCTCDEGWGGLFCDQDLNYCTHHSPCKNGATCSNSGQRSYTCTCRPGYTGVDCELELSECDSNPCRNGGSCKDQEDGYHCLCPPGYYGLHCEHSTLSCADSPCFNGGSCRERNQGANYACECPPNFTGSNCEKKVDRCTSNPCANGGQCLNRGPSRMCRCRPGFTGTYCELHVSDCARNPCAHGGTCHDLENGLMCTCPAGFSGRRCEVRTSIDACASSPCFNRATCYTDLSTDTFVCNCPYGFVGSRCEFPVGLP
T5 sequence (Q9Y219 24-1238): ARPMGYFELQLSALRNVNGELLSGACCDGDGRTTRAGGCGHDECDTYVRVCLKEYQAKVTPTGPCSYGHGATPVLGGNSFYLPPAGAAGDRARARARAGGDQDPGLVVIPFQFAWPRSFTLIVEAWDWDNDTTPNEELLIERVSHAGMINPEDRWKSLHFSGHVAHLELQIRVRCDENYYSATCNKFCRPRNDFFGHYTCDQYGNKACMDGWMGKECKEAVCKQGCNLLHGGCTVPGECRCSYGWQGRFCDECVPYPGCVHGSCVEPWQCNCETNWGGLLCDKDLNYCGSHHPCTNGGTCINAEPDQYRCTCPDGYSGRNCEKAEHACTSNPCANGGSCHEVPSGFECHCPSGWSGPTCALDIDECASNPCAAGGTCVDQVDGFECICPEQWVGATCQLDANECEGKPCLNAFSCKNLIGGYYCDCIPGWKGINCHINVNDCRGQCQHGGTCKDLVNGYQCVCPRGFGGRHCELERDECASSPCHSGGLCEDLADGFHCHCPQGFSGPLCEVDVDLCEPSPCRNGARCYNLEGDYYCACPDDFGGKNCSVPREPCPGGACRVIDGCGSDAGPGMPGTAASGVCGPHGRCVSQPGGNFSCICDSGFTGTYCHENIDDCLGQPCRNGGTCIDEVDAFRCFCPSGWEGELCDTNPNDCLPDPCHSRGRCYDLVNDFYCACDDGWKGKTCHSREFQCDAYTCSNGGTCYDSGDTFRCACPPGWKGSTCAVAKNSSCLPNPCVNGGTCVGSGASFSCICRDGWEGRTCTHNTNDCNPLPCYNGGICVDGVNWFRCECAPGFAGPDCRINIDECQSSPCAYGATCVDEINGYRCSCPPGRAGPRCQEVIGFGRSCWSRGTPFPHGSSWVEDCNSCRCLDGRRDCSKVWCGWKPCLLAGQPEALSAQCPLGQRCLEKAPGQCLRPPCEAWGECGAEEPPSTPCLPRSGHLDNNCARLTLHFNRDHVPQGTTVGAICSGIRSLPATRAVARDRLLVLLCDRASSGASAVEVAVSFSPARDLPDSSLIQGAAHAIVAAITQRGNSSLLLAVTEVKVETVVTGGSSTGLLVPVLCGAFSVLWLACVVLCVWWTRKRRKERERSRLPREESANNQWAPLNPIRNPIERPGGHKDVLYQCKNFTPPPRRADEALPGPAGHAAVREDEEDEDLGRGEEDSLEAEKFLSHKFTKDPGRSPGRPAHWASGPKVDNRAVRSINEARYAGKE
T3 sequence (P78504 34-1218): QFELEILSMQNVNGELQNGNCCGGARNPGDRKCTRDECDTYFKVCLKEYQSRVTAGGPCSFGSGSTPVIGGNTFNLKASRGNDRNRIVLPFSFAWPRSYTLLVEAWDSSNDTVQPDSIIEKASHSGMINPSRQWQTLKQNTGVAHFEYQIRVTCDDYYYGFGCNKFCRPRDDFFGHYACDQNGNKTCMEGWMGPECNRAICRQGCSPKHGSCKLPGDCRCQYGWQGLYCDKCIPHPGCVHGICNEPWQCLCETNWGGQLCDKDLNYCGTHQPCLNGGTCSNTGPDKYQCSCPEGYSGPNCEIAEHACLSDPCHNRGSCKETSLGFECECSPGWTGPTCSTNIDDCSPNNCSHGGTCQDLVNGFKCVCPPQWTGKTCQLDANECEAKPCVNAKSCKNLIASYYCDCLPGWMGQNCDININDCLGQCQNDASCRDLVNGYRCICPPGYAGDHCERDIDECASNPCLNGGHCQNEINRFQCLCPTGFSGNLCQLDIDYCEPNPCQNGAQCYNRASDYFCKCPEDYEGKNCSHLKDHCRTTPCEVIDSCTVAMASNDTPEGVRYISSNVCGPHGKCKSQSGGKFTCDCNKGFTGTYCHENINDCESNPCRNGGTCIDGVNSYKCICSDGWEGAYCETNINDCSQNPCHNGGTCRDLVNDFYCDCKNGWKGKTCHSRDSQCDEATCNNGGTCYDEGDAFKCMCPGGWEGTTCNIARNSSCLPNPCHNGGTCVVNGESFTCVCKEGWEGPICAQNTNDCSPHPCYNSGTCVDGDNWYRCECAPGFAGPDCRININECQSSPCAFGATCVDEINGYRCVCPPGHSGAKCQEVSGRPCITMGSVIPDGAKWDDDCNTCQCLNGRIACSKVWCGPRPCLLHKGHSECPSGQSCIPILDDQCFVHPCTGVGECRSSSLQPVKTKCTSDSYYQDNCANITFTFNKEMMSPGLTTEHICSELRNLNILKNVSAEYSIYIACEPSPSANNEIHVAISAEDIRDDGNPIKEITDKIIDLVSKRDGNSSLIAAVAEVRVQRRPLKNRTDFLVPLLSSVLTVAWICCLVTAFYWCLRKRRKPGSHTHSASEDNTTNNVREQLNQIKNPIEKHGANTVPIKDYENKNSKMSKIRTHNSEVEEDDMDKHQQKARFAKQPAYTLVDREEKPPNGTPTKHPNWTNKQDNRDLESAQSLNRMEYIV

B1: cSTL4 (antibody, V domains shown)
VH: EVQLQQSGPELVKPGASVKMSCKASGYTFTSYVMHWVKQKPGQGLEWIGYIIPYNDGTKYNEKFKGKATLTSDKSSSTAYMELSSLTSEDSAVYYCARSEDYDHFDYWGQGTTVTVSS
VL: QIVLSQSPVILSASPGEKVTMTCRASSSVSFMHWYQQKPGSSPKPWIYATSNLTSGVPTRFSGSGSGTSYSLTISRVEAEDAATYYCQQWSSNPFTFGSGTKLEIKR
notes: Chimeric form of STL4: mouse VH and VL fused to human IgG heavy and kappa constant regions, expressed from pCAcc vectors; also called chimeric anti-Dll4 antibody; chimeric antibody; not shown: human IgG heavy constant region CH1-H-CH2-CH3; human immunoglobulin kappa light chain constant region
B1: in the assay with pure recombinant Dll4, the Ka is 2.45e+09 M⁻¹, the Kd is 408 pM and the koff is 8.79e-05 s⁻¹.

B2: STL4 (antibody, V domains shown)
VH: EVQLQQSGPELVKPGASVKMSCKASGYTFTSYVMHWVKQKPGQGLEWIGYIIPYNDGTKYNEKFKGKATLTSDKSSSTAYMELSSLTSEDSAVYYCARSEDYDHFDYWGQGTTVTVSS
VL: QIVLSQSPVILSASPGEKVTMTCRASSSVSFMHWYQQKPGSSPKPWIYATSNLTSGVPTRFSGSGSGTSYSLTISRVEAEDAATYYCQQWSSNPFTFGSGTKLEIKR
notes: Mouse monoclonal antibody (BALB/c hybridoma, purified from ascites); mouse IgG1 served as the control; also called anti-DLL4 antibody; anti-Dll4-antibody (STL4)
Turning to B2, the binding result in assay [1], in assay [2], in assay [3] and in assay [4] was “no binding” in each case.

In general, Kd refers to the concentration at which binding is half-saturated. Usually koff stands for the first-order rate constant of dissociation.
